From patent US20110020273A1

Molecular target: fusion protein containing the A3B3 domain of CEA (UniProt P06731)
Assay: competitive ELISA against HRP-conjugated hMN-14 IgG (1 nM)

Chain of fusion protein containing the A3B3 domain of CEA (P06731 499-676): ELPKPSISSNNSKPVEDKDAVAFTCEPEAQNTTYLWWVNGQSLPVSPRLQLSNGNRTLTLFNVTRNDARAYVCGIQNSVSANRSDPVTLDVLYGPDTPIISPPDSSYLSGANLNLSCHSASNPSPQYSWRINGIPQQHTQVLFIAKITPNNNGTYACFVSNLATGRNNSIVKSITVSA

TF2 (bispecific antibody) was tested. Which avidity, fold over TF1 did it give?
The avidity, fold over TF1 was 2 fold.
